In article PMC12049912 (2025):

T1: p68 S551F (mp68; DDX5 S551F) peptide on H-2Kb (mouse)
T1 peptide: SNFVFAGI

B1: 1D9 (TCR)
alpha TRAV1 TRAJ30 CDR3: CAVRSDTNAYKVIF
beta TRBV19 TRBJ2-7 CDR3: CASSKRLSSYEQYF
B2: T3-3/2 (TCR)
alpha TRAV19 TRAJ40 CDR3: CAAGGVNTGNYKYVF
beta TRBV12-1 TRBJ2-1 CDR3: CASSLRGYAEQFF
B3: T1-3 (TCR)
alpha TRAV19 TRAJ40 CDR3: CAAGGFNTGNYKYVF
beta TRBV19 TRBJ2-7 CDR3: CASSIRQGSGEQYF
B4: T3-3 (TCR)
alpha TRAV13-4 TRAJ30 CDR3: CAMEHDTNAYKVIF
beta TRBV12-1 TRBJ2-1 CDR3: CASSLRGYAEQFF

Assays:
[1] = target: T1, p68 S551F (mp68; DDX5 S551F) peptide on …; assay: cytokine release
[2] = target: T1, p68 S551F (mp68; DDX5 S551F) peptide on …; assay: multimer staining

Binder | binding result [1] | binding result [2]
B1 | recognises | –
B2 | – | no recognition
B3 | – | no recognition
B4 | – | no recognition
